{"source": "paper PMC7729979", "about": "“A protein of the metallo-hydrolase/oxidoreductase superfamily with both beta-lactamase and ribonuclease activity is linked with translation in giant viruses” (Scientific Reports, 2020)", "key": {"[1]": {"target": "TupBlac (Tupanvirus deep ocean MBL fold protein AUL78925.1) (Tupanvirus deep ocean, UniProt A0AC62AAK8)", "assay": "LC-MS of penicillin G hydrolysis and benzylpenilloic acid formation", "type": "biochemical", "conditions": "sulbactam 10 µg/mL, penicillin G 10 µg/mL, room temperature, up to 48 h; inhibition qualitative, mechanism not determined"}, "[2]": {"system": "O=C(Cc1cccs1)N[C@@H]1C(=O)N2C(C(=O)O)=C(/C=C/c3ccc([N+](=O)[O-])cc3[N+](=O)[O-])CS[C@H]12", "assay": "purified protein", "conditions": "PBS pH 7.4, promiscuous beta-lactamase activity"}}, "data": [{"molecule": "CC1(C)[C@H](C(=O)O)N2C(=O)C[C@H]2S1(=O)=O", "note": "[sulbactam]", "values": [{"measurement": "LC-MS of penicillin G hydrolysis and benzylpenilloic acid formation", "setting": "[1]", "value": "both penicillin G degradation and benzylpenilloic acid appearance were inhibited by sulbactam"}]}, {"molecule": "TupBlac (Tupanvirus deep ocean MBL fold protein AUL78925.1) (Tupanvirus deep ocean)", "values": [{"measurement": "Km", "setting": "[2]", "value": "160 ± 5", "unit": "µM"}, {"measurement": "kcat", "setting": "[2]", "value": "8.8 × 10^–4 ± 8.5 × 10^–5 s^−1"}]}]}
